Data on four substances can be found in patent publication US20250215108A1.

Assay [1] addresses SIRPγ on peripheral human CD3+ T cells (human) (UniProt Q9P1W8). Description: flow cytometry on peripheral human CD3+ T cells, 10 µg/ml; Exp 1 HV1.
The target is the same in assay [2]. Description: flow cytometry on peripheral human CD3+ T cells, 10 µg/ml; Exp 1 HV2.
Assay [3] has as its target recombinant hSIRPa-His (Sino Biologicals, reference 11612-H08H) (human) (UniProt P78324). As to the kind of experiment: SPR (Biacore 3000); SIRPa-His immobilised on a CM5 chip (500 RU), antibody injected; 3 min association, 10 min dissociation.
For assay [4], the target named is recombinant hSIRPa (Sino Biologicals, reference 10975-H08H) (human) (UniProt P78324). As to the kind of experiment: ELISA (ED50), immobilized hSIRPa, anti-mouse Fc detection.

Values joined by “and” are separate entries in the source; they are usually repeats but may differ in a detail not shown here. Identical values can stand only once.

Sequence of SIRPγ on peripheral human CD3+ T cells (human) (Q9P1W8 29-387): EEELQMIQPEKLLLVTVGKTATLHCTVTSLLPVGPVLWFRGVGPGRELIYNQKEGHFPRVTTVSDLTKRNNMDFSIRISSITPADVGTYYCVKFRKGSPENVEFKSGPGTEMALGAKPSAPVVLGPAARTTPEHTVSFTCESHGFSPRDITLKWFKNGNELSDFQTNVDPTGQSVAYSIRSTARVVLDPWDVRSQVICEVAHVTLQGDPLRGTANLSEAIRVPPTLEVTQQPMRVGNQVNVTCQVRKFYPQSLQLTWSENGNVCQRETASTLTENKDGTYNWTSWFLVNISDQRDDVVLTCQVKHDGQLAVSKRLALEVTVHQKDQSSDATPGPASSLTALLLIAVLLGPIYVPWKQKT
Sequence of recombinant hSIRPa-His (Sino Biologicals, reference 11612-H08H) (human) (P78324 31-370, form in doubt): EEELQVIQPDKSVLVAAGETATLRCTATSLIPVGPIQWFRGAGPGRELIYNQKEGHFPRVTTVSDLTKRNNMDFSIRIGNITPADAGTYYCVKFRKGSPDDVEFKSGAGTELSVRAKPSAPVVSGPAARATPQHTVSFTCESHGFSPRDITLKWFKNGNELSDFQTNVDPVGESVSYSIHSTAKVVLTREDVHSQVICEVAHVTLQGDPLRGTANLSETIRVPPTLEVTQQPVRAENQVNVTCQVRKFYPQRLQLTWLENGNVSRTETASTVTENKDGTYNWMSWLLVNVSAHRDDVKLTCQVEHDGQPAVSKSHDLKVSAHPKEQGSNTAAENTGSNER
Sequence of recombinant hSIRPa (Sino Biologicals, reference 10975-H08H) (human) (P78324 other isoform, or with tags, fused parts or gaps H08H H08H limits assumed): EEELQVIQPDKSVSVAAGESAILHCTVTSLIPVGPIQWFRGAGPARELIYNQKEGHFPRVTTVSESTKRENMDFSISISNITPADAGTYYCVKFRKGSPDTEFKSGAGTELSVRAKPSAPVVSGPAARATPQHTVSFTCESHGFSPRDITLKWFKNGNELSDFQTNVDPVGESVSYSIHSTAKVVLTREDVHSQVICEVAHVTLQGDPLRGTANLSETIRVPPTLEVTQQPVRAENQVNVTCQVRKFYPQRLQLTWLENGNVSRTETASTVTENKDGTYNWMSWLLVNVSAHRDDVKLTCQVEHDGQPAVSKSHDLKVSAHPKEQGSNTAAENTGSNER

Regarding LSB2.20 (specific anti-SIRPγ antibody), the % of positive T-cells in assay [1] turned out to be 91.4%; in assay [2], 98.4%.
For “SE5A5 (BioLegend BLE323802), antibody recognizing SIRP a/B”, in assay [3], the Kd was determined as 38.7 nM, the koff amounted to 0.000949 s⁻¹ and the kon worked out at 24500 M⁻¹ s⁻¹. Moreover, the % of positive T-cells in assay [1] was found to be 3.72%. The substance also had a % of positive T-cells in assay [2] of 7.69%. Further, the concentration giving a half-maximal response (EC50) in assay [4] was 0.16 nM and 0.024 µg/mL.
With “anti-SIRPa antibody SE7C2 (Santa Cruz sc-23863)”, in assay [3], the Kd amounted to 1670 nM, the koff was found to be 0.01 s⁻¹ and the association rate constant (kon) amounted to 5980 M⁻¹ s⁻¹.
anti-SIRPb antibody B4B6: the figures for the % of positive T-cells in assay [1] and in assay [2] were 0.87% and 0.25%, respectively.
